{
  "source": "the nanobody polyreactivity screen of Harvey et al. (2022)",
  "data": [
    {"assay": "yeast display, Sf9 membrane polyspecificity reagent, FACS + sequencing; frameworks hold sequencing errors", "summary_of_the_method": "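Galactose-induced (36–48 hours) yeast carrying a synthetic nanobody display library were exposed to 10% biotinylated, detergent-solubilized Sf9 membrane reagent at 4 °C for 1 hour. FACS followed streptavidin microbead enrichment, using low and high (top ~1%) gates for expression (anti-HA) and reagent binding (streptavidin). Colony PCR, MiSeq 2 × 250 sequencing and CDR-length filtering followed. Labels for polyreactivity reflect the gate of origin.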", "values": [
      {"sequence": "QVQLVESGGGLVQAGGSIRLSCAASGLTFRWYAMGWYRQAPGKESELVAAISSGGRTYYADSVKGRFTISRDNAKNTVYLLMNSLKPEDTAVYYSNKRTLDYGFGSYGREYWGQGTQVTVSS", "polyreactivity (PSR sort gate)": "high polyreactivity"},
      {"sequence": "QVQLVESGGGLVQAGGSLRLSCAASGSNFSSNAMGWYRQAPGKERELVAAISRSGVTTYYADSVKGRFTISRDNAKNTVYLQMNSLKPEDTAVYYCAGQPYSRLYGRYRGFQYKYVYWGHGTQVTVSS", "polyreactivity (PSR sort gate)": "low polyreactivity"},
      {"sequence": "QVQLVESGGGIVQAGGSLRLCCAASGRSFSHYAMGWSRQAPGKDRELVATITRNGGITYYADSVKWRFTISRDNAKNTVYLQMNSLKPEDTAVYYCAAGRYYNLRATHGYWGQATQVTVSS", "polyreactivity (PSR sort gate)": "low polyreactivity"},
      {"sequence": "QVQLVESGGGLVQAGGSLRLSCAASGSIFDYYTMGWYRQAPGKERELVATIRSGDSTNYADSVKGRFTISRDNAKNTVYLQMNSLIPEDTAVYYCAADDGAYPTLYDYWGQGTQVTVST", "polyreactivity (PSR sort gate)": "low polyreactivity"},
      {"sequence": "QVQLVESGGGLVQAGGSLRLSCAASGSTFASNTMGWYRQAPGKERELVAAITQSGGTTYYAESVKGRFTISRDNAKNTVTLQMNSLKPEDTAVYYCATDVGYFYTVVGGYDYWGQGTQVTVSS", "polyreactivity (PSR sort gate)": "low polyreactivity"},
      {"sequence": "QLQLVESGGGIVQAGGRLRLSCAASGLIFYLYAMGWYRQAPGKERELVATITTGGRTNYADSVKGRFTISRDNAKISVYLQMNSLTPVDTAVYYCAATHRGQGGYYWGQGSQVTVSS", "polyreactivity (PSR sort gate)": "low polyreactivity"},
      {"sequence": "QVQLVESGGGLVQAGGSLRLSCAASGYIFQTYAMGWYRQAPGKEREFVAAITSGAGRTSYADSVKGRFTISRDNAKNTVYLQMNSLKPEDTAVYYCAARWRYQLSGSRLSYGKYDYWGQGTQVTVSS", "polyreactivity (PSR sort gate)": "high polyreactivity"},
      {"sequence": "QVQLVESGGGLVQAGGSLRISCAASGSIFKKYAMGWYIQAPGKEREFVAAITRGTYYADSVKGRFTISRDNAKNTVYLQMNSLKPEDTAVYDCYREYWGRGYYRVRGEYDYWGQGTQVTVSS", "polyreactivity (PSR sort gate)": "low polyreactivity"},
      {"sequence": "QVQLVESGGGLDQAGGSLRLSCAASGITFKPYGMGWYRQAPGKERELVADITSGGITYYADSVKGRFTISRDNAKNTVYLQMNSLKPEDTAVYYCATGDLFVFYWGYVVRLYDYWGQGTQVTVSS", "polyreactivity (PSR sort gate)": "low polyreactivity"},
      {"sequence": "QVQLVESGGGLVQAGGSLRLSCAASGSTFGRYAMGWYRQAPGKEREMVAAISQRGGSTYYADSVKGRFTISRDYAKNTVYLQMNSLKPEDTAVYYCAAYYTRIRNHYGYWGQGTQVTVSS", "polyreactivity (PSR sort gate)": "high polyreactivity"},
      {"sequence": "QVQLVESGGGLVQAGGSLRLSCAASGSTFFSYAMGWYRQAPGKERDLVAAITSNGGTTHYADSVKGRFTISRDNAKNTVYLQMNSLKPEDTADYYCAKAQGHVRGSRGLQGGRYDYWGQGTQVTVSS", "polyreactivity (PSR sort gate)": "low polyreactivity"},
      {"sequence": "QVQLVESGGGLVQAGGSLRLSCAASGSIFPTYAMGWYRQAPGKERELVAAIRSGSNTYYADSLKGRFTISRDNAKNTDYLQMNCLKPEDTAVYYCNVGPQRKYPGRRTVPFGYWGQGTQVTVSS", "polyreactivity (PSR sort gate)": "low polyreactivity"},
      {"sequence": "QVQLVESGGGLVQAGGSLRLSCAASGSIFRVYAMGWYRQAPGKERELVAGITWTGTRTYYADSVKGRFTISRDNAKNTVYLQMNSLKPEDTAVYYCAARYTIRYKRYDYWGQGTQVTVSS", "polyreactivity (PSR sort gate)": "high polyreactivity"},
      {"sequence": "QVQLVESGGGLVQAGGSLRLSCAASGITFTTYAMGWYRQAPGKERELVATINRGSRTNYADSVKGRFTISRDNAKNTVYLQMNSLKAEDTAVYYCAAHYTTFIPSPDGDYLGQGTQVTVSS", "polyreactivity (PSR sort gate)": "low polyreactivity"},
      {"sequence": "QVQLVESGGGLVQAGGSLRLTCAASGSIFDYYAMGWYRQAHGKERELVAAISDSGSTYYADSVKGRFTISRDNAKNTVYVQMNSLKAEDTAVYYCAAVLWSPYRSEPLDTYEYWGQGTQVTVSS", "polyreactivity (PSR sort gate)": "low polyreactivity"},
      {"sequence": "QVQLVESGGGLVQAGGSLRLSCAASGRTFIINTMGWYRQAPGKERELVAAISKNGATTNYADSVKGRFTISRDNAKNTVYLQMNSLKPEDTAVYYCAKKASYWWGYEYWGQGTQVTVSS", "polyreactivity (PSR sort gate)": "low polyreactivity"},
      {"sequence": "QVQLVESGGGLVQAGCSLRLSCAASGRIDRRYAMGWYRQAPGKERDLFAAISSRGGRTYYADSVKGRFTISRDNAMNTVYLQMNSLKQEDTAVYYCAARPAGYGHYKYYYWGKGTQVTVSS", "polyreactivity (PSR sort gate)": "high polyreactivity"},
      {"sequence": "QVQLVESGGGLVQAGGSLRLSCAASGRTFGYNAMGWYRKAPGKEREFVAAISWSGGRTYYADSVKGRFTISRDNAKNTVYLQMNSLKPEDTAVYYCAAGFGDGPGNGYYTRYSWDDDYWGQGTQVTVSS", "polyreactivity (PSR sort gate)": "low polyreactivity"},
      {"sequence": "QVQLVDSVGGLVQAGGSLRLSCAASGSIFWTYAMGWYRQAPGKERELVATITYSDGNTYYADSVKGRFTISRDNAKNTVYLQMHSLKPEDTAVYYCNADGIYASISGYRYDYWGQGTQVTVSS", "polyreactivity (PSR sort gate)": "low polyreactivity"},
      {"sequence": "QVQLVESGGGLVQAGGSLRLSCAASGSIFSSYAMGWYRQAPGKERELVAAISTAGSTNYADSVKGRFTISRDNAKNTVYLQMNSLKPEDTAVYYCAADSGDQQSYGLDLNHDFDYWGQGTQVTVSS", "polyreactivity (PSR sort gate)": "low polyreactivity"},
      {"sequence": "QVQLVESGGGLVQAGGSLRLSCDASGSIFVLNAMGWYRQAPGKERELVAAISYSGGSTYYADSVKGRFTISRDNAKNTVYLQMNSLKPEDTAVYYCAADLVSYYGYSSEYEYWGQGTQVTVSS", "polyreactivity (PSR sort gate)": "high polyreactivity"},
      {"sequence": "QVQLVESGGGLVQAGGSLRLSCAASGGILWGNGMGWYRQAPGKERELVAAISTGGSTNYADSVKGRFTISRDNAKNTVYLQMNSLKPEETAVYYCAGGAGGVRYSFYWNDYWGQGTQVTVSS", "polyreactivity (PSR sort gate)": "high polyreactivity"},
      {"sequence": "QVQLVESGGGLVQAGGSLRLSCAASGSIFADYAMGWYRQAPGKERELVAAISYNGDSTYYADSVKGRFTISRDNAKNTVYLQMNSLKPEDTAVYYCNAAARRYTSVFYTSGYTFDYWGQGTQVTVSS", "polyreactivity (PSR sort gate)": "low polyreactivity"},
      {"sequence": "QVQLVESGGGLVQAGGSLRLSCAASGRNFNSYAMGWYRQAPGKERELVAAISWNGGSTYYADSVKGRFTISRDNAKITVYLQMNSLKPEDTAVYYCAATYLLRGDAYYSWGQGTQVTVSS", "polyreactivity (PSR sort gate)": "high polyreactivity"},
      {"sequence": "QVQLVESGGGLVQAGGSLRLSCAASGRIFYSYAMGWYRQATGKEREMVASISRSGAITNYADSVKGRFTISRDNAKNPVYLQMNSLIPEDTAVYYCAARLRRVYPPYDYWGQGTQVTVSS", "polyreactivity (PSR sort gate)": "high polyreactivity"},
      {"sequence": "QVHIEDSGGGLLQAGGSLRLSCAATGRTFFYYAMGWYRQAPGKERELVAAISGRGGRTYYADSVKGRFTISRDNAINTVYLQMNSLKPEDTAVYFCGGDAGPLRYDYWGQGTQVTVSS", "polyreactivity (PSR sort gate)": "high polyreactivity"},
      {"sequence": "QVQLVESGGRLVEAGGSLSLSWAASGRIFPKYPMGWYRQAPGKERELVAAISRRGSSTYYADSVQGRFTISRDNAKNTVYLQMNSLTPEDTAVYYCATDARDGHDYWGQGSQVTVSS", "polyreactivity (PSR sort gate)": "high polyreactivity"},
      {"sequence": "QVQLEDSGGGLVQAGGSLRLSCAASGLNLYRYAMGVYRQEPGKEREFVASISWSGGSTYYADSVKGRFTISRDNAKNTVYLQMNSLKPEDTAVYYCATDSDTSQLGYDYWGQGTQVTVAS", "polyreactivity (PSR sort gate)": "low polyreactivity"},
      {"sequence": "QVQLVESGVGLVQAGGSLRLSCAASGSTFSIYALGWYRQAPGKERELVAAISWDSDDTYYADSVNGRFTISRDNAKNTVYLQMNSLKPEDTAVYYCAADRLDRYYYWGQGTQVTVSS", "polyreactivity (PSR sort gate)": "low polyreactivity"},
      {"sequence": "QVQLVESGRGLVQAGGSLRISCAASGFTFSRYAMGWYRQAPGKERELVAAISLRGGRTYYADSVKGRFTISRDNAKNTVYLQMNSLKPEDTAVYYCNRDYRGPYYYWGQGTQVTVSS", "polyreactivity (PSR sort gate)": "high polyreactivity"},
      {"sequence": "QVQLVESGGGLVQAGGSLRLSCAASGRTFGVNAMGWYRQAPGKERELVATIRRGGSTYYADSVKGRFTISRDNAKNTVYLQMNSLKPEDTAVYYCNASHVTWNRKYDYWGQGTQVNVSS", "polyreactivity (PSR sort gate)": "low polyreactivity"},
      {"sequence": "QVQLVQSGGGLVQAGGSLRLSCAASGSIFYDYAMGWYRQAPGKERELVAAINSGVSTSYADSVKGRFTISRDNAKNTVYLQMNSLKPEDTAVYYCAKDGSSPSPWYGGFGYWGQGTQVTVSS", "polyreactivity (PSR sort gate)": "low polyreactivity"},
      {"sequence": "QVQLVESGGGLVQAGGSLRLSCAASGLTIWRYAMGWYRQAPGKEREFVATISQYGGRTYYAASVKGRFTITRDNAKKTVNLQMNSLKPEDTAVYYCAADDWRWGYDYWGPGTQVTVSS", "polyreactivity (PSR sort gate)": "high polyreactivity"},
      {"sequence": "QVQLVESGGGLVQAGGSLRISCAASGSTFSTYAMGSYRTEPGKERELVASISNGGSTNYEDSVKGRFTISRDNAKNTVYLQMNSLKPEDTAVYYFNAESKAKYDYFGQGTQVTVSS", "polyreactivity (PSR sort gate)": "low polyreactivity"},
      {"sequence": "QVQLVESGGGLVQARGSLRLSCAASGSTFEANSMGWYRQAPGKERELVAVLTWTGGSTYYADSVKGRFTISRDNAKNTVNLHMISLNPEDTAVEYCAADGVLPGRFFWPAHEYDYWGQGTQVTVSS", "polyreactivity (PSR sort gate)": "low polyreactivity"},
      {"sequence": "QVQLVDSGGGVVQAGLSLRLSCAASGRTFPGYAIGWYRQAPGKEMELVASITSRGGITYYADSVKGRFTISRDNAKITVYLQLNSLKPEDSAVYYCATDFAVTKMEYWGQGSQVTVSS", "polyreactivity (PSR sort gate)": "low polyreactivity"},
      {"sequence": "QVQLVESGGGLVQAGGSLRLSCAASGGTFAWYAMGWYRQAPGKERELVAAITSDGNTDYADSVKGRFTISRDNAKNTVYLQMNSLKPEDTAVYYCAADVQWRSAYDYTMGYWGQGTQVTVSS", "polyreactivity (PSR sort gate)": "low polyreactivity"},
      {"sequence": "QVQLVESGGGLVQAGGSLRLSCAASGSIFVGNAMGWYRQAPGKERELVAGISKSGSRTYYADSVKGRFTISRDNAKNTVYVQMNSLKPEDTSVYYCAAGKVAYYTLDYYWGQGTQVTVSS", "polyreactivity (PSR sort gate)": "high polyreactivity"},
      {"sequence": "QVQLVESGGGLVQAGGSLRLSCADSGFIFVPYAMGWYRQAPGKERELVATITGRGDSTYYADSVKWRFTISRDNALNTVYLQMNSLKTEDTSLFYCAVDPIRLWAYDYWGQGTQVTVSS", "polyreactivity (PSR sort gate)": "low polyreactivity"},
      {"sequence": "QVQLVESGGGLVQAGGSLRLSCAASGSTFKFYGVGWYRQAPGKERQLVASITSSSGPTYYADSVKGRFTISRDNAKYTVYLQLNSLKPEDPAVYDCNKAWRRYWLRGDYWGQGKQVTVSS", "polyreactivity (PSR sort gate)": "low polyreactivity"}
    ]}
  ]
}
